The values below come from US20250011363A1, “OPTIMIZED SHORTENED PEPTIDE THAT BINDS TO ACETYLCHOLINE RECEPTOR, AND USE THEREOF” (SKINMED CO., LTD., priority 2021, published 2025).

The target in assay [1] is acetylcholine receptor. Description: SPR, peptide at 10 uM, AchR immobilized. (In general: In SPR one partner is held on a chip, and binding of the other changes the refractive index at the surface.)
The target of assay [2] is acetylcholine receptor. Description: SPR, peptide at 10 uM on immobilised AchR.

B1: 6mer-1-685 (peptide)
peptide: RRESWK
B1 yielded a Binding affinity with acetylcholine receptor [1] of 14 RU.

B2: 6mer-1-56 (peptide)
peptide: RRGIQR
B2 returned a Binding affinity (RU) with acetylcholine receptor [2] of 137 RU.

B3: 6mer-1-682 (peptide)
peptide: KKKDIR
B3 had a Binding affinity in the assay with acetylcholine receptor [1] of 30 RU.

B4: 6mer-1-694 (peptide)
peptide: RKYTKR
Turning to B4, the Binding affinity in the assay with acetylcholine receptor [1] was 27 RU.

B5: 6mer-1-54 (peptide)
peptide: RRRVCK
As to B5, the Binding affinity (RU) with acetylcholine receptor [2] came out at 144 RU.

B6: 6mer-1-687 (peptide)
peptide: RREWIK
As for B6, in the assay with acetylcholine receptor [1], the Binding affinity is 23 RU.

B7: 6mer-1-691 (peptide)
peptide: RKPKAR
For B7, the Binding affinity in the assay with acetylcholine receptor [1] worked out at 31 RU.

B8: 6mer-1-673 (peptide)
peptide: RRAMPK
B8 showed a Binding affinity with acetylcholine receptor [1] of 16 RU.

B9: 6mer-1-679 (peptide)
peptide: KKAEER
B9 displayed a Binding affinity in the assay with acetylcholine receptor [1] of 30 RU.

B10: 6mer-1-672 (peptide)
peptide: RKMEIR
In turn, B10 displayed a Binding affinity with acetylcholine receptor [1] of 17 RU.

B11: 6mer-1-698 (peptide)
peptide: KRFNHK
As to B11, the Binding affinity in the assay with acetylcholine receptor [1] stood at 27 RU.

B12: 6mer-1-681 (peptide)
peptide: KKEWKK
Consider B12, for which the Binding affinity with acetylcholine receptor [1] was found to be 32 RU.

B13: 6mer-1-55 (peptide)
peptide: KRSIYR
B13: the Binding affinity (RU) with acetylcholine receptor [2] amounted to 133 RU.

B14: 6mer-1-676 (peptide)
peptide: KRCPWR
As for B14, the Binding affinity with acetylcholine receptor [1] came out at 16 RU.

B15: 6mer-1-680 (peptide)
peptide: KKDPPR
In the assay with acetylcholine receptor [1], B15 showed a Binding affinity of 27 RU.

B16: 6mer-1-63 (peptide)
peptide: KKWVSR
In the case of B16, the Binding affinity (RU) in the assay with acetylcholine receptor [2] stood at 148 RU.

B17: 6mer-1-689 (peptide)
peptide: KRCPVR
Take B17: the Binding affinity with acetylcholine receptor [1] is 11 RU.

B18: 6mer-1-670 (peptide)
peptide: KKDWNR
In the assay with acetylcholine receptor [1], B18 came in with a Binding affinity of 11 RU.

B19: 6mer-1-684 (peptide)
peptide: KRNNDR
In the assay with acetylcholine receptor [1], B19 yielded a Binding affinity of 20 RU.

B20: 6mer-1-64 (peptide)
peptide: RKQFTK
B20 came in with a Binding affinity (RU) with acetylcholine receptor [2] of 154 RU.

B21: 6mer-1-690 (peptide)
peptide: KREAER
In the case of B21, the Binding affinity with acetylcholine receptor [1] turned out to be 21 RU.

B22: 6mer-1-674 (peptide)
peptide: RKHPKK
Consider B22, for which, in the assay with acetylcholine receptor [1], the Binding affinity was found to be 32 RU.

B23: 6mer-1-696 (peptide)
peptide: KKHCNR
B23 came in with a Binding affinity with acetylcholine receptor [1] of 18 RU.

B24: 6mer-1-58 (peptide)
peptide: RKSVTR
Turning to B24, in the assay with acetylcholine receptor [2], the Binding affinity (RU) came to 126 RU.

B25: 6mer-1-68 (peptide)
peptide: RKLQLK
In the case of B25, the Binding affinity (RU) with acetylcholine receptor [2] stood at 153 RU.

B26: 6mer-1-57 (peptide)
peptide: RKQYYK
Take B26: in the assay with acetylcholine receptor [2], the Binding affinity (RU) was determined as 139 RU.

B27: 6mer-1-695 (peptide)
peptide: KRADVK
On to B27, for which the Binding affinity with acetylcholine receptor [1] amounted to 13 RU.

B28: 6mer-1-61 (peptide)
peptide: KRSYCK
For the molecule B28, in the assay with acetylcholine receptor [2], the Binding affinity (RU) turned out to be 121 RU.

B29: 6mer-1-686 (peptide)
peptide: KKYEVR
As for B29, the Binding affinity in the assay with acetylcholine receptor [1] was 25 RU.

B30: 6mer-1-60 (peptide)
peptide: RKSIQK
For B30, the Binding affinity (RU) in the assay with acetylcholine receptor [2] turned out to be 139 RU.

B31: 6mer-1-53 (peptide)
peptide: KRVIQR
In the assay with acetylcholine receptor [2], B31 returned a Binding affinity (RU) of 123 RU.

B32: 6mer-1-677 (peptide)
peptide: KKCCFR
In the case of B32, the Binding affinity with acetylcholine receptor [1] stood at 22 RU.

B33: 6mer-1-668 (peptide)
peptide: RKATVK
B33 gave a Binding affinity with acetylcholine receptor [1] of 17 RU.

B34: 6mer-1-667 (peptide)
peptide: KRDSPK
B34 showed a Binding affinity with acetylcholine receptor [1] of 32 RU.

B35: 6mer-1-692 (peptide)
peptide: RKNTHK
As for B35, the Binding affinity in the assay with acetylcholine receptor [1] worked out at 22 RU.

B36: 6mer-1-675 (peptide)
peptide: KKIWKR
Consider B36, for which the Binding affinity with acetylcholine receptor [1] was 21 RU.

B37: 6mer-1-700 (peptide)
peptide: RKKMWK
In the assay with acetylcholine receptor [1], B37 came in with a Binding affinity of 19 RU.

B38: 6mer-1-688 (peptide)
peptide: RKDEVR
The molecule B38 showed a Binding affinity with acetylcholine receptor [1] of 33 RU.

B39: 6mer-1-65 (peptide)
peptide: KKSRRR
B39 came in with a Binding affinity (RU) with acetylcholine receptor [2] of 121 RU.

B40: 6mer-1-678 (peptide)
peptide: KRMAAK
Molecule B40 came in with a Binding affinity in the assay with acetylcholine receptor [1] of 25 RU.

B41: 6mer-1-666 (peptide)
peptide: KKAANK
In turn, B41 gave a Binding affinity in the assay with acetylcholine receptor [1] of 18 RU.

B42: 6mer-1-701 (peptide)
peptide: RRKTWR
In the case of B42, the Binding affinity with acetylcholine receptor [1] is 13 RU.

B43: 6mer-1-62 (peptide)
peptide: RRWFTK
In turn, B43 had a Binding affinity (RU) in the assay with acetylcholine receptor [2] of 133 RU.

B44: 6mer-1-67 (peptide)
peptide: RRSYTR
For the molecule B44, the Binding affinity (RU) with acetylcholine receptor [2] was determined as 135 RU.

B45: 6mer-1-697 (peptide)
peptide: RRPTNR
In the assay with acetylcholine receptor [1], B45 showed a Binding affinity of 13 RU.

B46: 6mer-1-693 (peptide)
peptide: RKIDMK
Regarding B46, the Binding affinity with acetylcholine receptor [1] turned out to be 22 RU.

B47: 6mer-1-671 (peptide)
peptide: KKNMVR
As for B47, the Binding affinity with acetylcholine receptor [1] was 11 RU.

B48: 6mer-1-66 (peptide)
peptide: KKSISR
In the assay with acetylcholine receptor [2], B48 had a Binding affinity (RU) of 147 RU.

B49: 6mer-1-683 (peptide)
peptide: KRDSMR
Turning to B49, the Binding affinity with acetylcholine receptor [1] amounted to 16 RU.

B50: 6mer-1-59 (peptide)
peptide: KRLQCK
In the assay with acetylcholine receptor [2], B50 registered a Binding affinity (RU) of 145 RU.

B51: 6mer-1-669 (peptide)
peptide: KRNMAK
In turn, B51 registered a Binding affinity with acetylcholine receptor [1] of 23 RU.

B52: 6mer-1-699 (peptide)
peptide: RRTTVR
Consider B52, for which the Binding affinity in the assay with acetylcholine receptor [1] is 28 RU.
